Data: patent publication US20100172938A1 (NEDERLANDSE ORGANISATIE VOOR TOEGEPAST …, published 2010)

Columns and labels:
[1] = biological target: the molecule itself; test: SDS-PAGE and western blot, self-association (dimer)
From the text: To get further insight in the structure of SAN, vectors were constructed encoding C-terminally (SAN2, 4 and 6 carrying the first 159, 149 and 113 amino acids) or N-terminally truncated peptides (SAN7, 3 and 5 comprising the last 177, 151 and 141 amino acids). The truncated His-tagged genes were expressed in E. coli and the peptides SAN2, SAN4, SAN6 and SAN7 were purified by affinity chromatography. The peptides SAN3 and SAN5 were produced at very low levels and could not be purified probably due to increased sensitivity to E. coli proteases.
Three DNA fragments encoding C-terminally truncated SAN peptides were amplified by PCR with pBK1 (Boot et al., 1993) as template. Primer CEA1 (5′-[…]-3′, forward: SEQ ID NO. 26) was used in combination with primer SANA1 (5′-[…]-[…]-3′, reverse: SEQ ID NO. 27) to amplify SAN2, SANA2 (5′-[…]-3′, reverse: SEQ ID NO. 28) for SAN4 and SANA3 (5′-[…]-3′, reverse: SEQ ID NO. 29) for SAN6. Fragments encoding three N-terminally truncated peptides were amplified using primer SANB1 (5′-[…]-[…]-3′: SEQ ID NO. 30) for SAN3, SANB2 (5′-[…]-TT-[…]-3′: SEQ ID NO. 31) for SAN5 and SANB3 (5′-GGGGGG-[…]-3′: SEQ ID NO. 32) for SAN7, all three in combination with primer SAN1 (5′[…]-[…]-3′, reverse: SEQ ID NO. 33) and the same template. The fragments were cloned in pGEM-T and sequenced. The fragments encoding SAN2, SAN3, SAN4, SAN5, SAN6 and SAN7 were excised as BamHI-HindIII fragments and introduced in vector pQE30ΔXN (Smit et al., 2001) in frame with an N-terminal six histidine tag. Expression of gene fragments and purification of the gene products was performed as described previously (Smit et al., 2001).

[2] = biological target: the molecule itself; test: SDS-PAGE and western blot, self-association

Protein	binding result [1]	binding result [2]
SAN4, C-terminally truncated SAN peptide carrying the first 149 amino acids, His-tagged (other) RGSHHHHHHGSGTATTINASSSAINTNTNAKYDVDVTPSVSAVAANTANNTPAIAGNLTGTISASYNGKTYTANLKADTENATITAAGSTTAVKPAELAAGVAYTVTVNDVSFNFGSENAGKTVTLGSANSNVKFTGTNSDNQTETNVSTLKVKLDQNGVAS	binds	
SAN7, N-terminally truncated SAN peptide, His-tagged (other) RGSHHHHHHGSGTSANSNVKFTGTNSDNQTETNVSTLKVKLDQNGVASLTNVSIANVYAINTTDNSNVNFYDVTSGATVTNGAVSVNADNQGQVNVANVVAAINSKYFAAQYADKKLNTRTANTEDAIKAALKDQKIDVNSVGYFKAPHTFTVNVKATSNTNGKSATLPVVVTVPNVAEPTVASVSKRI	binds	
SAN2, C-terminally truncated SAN peptide carrying the first 159 amino acids, His-tagged (other) RGSHHHHHHGSGTATTINASSSAINTNTNAKYDVDVTPSVSAVAANTANNTPAIAGNLTGTISASYNGKTYTANLKADTENATITAAGSTTAVKPAELAAGVAYTVTVNDVSFNFGSENAGKTVTLGSANSNVKFTGTNSDNQTETNVSTLKVKLDQNGVASLTNVSIANVY	binds	
SAN6, C-terminally truncated SAN peptide, His-tagged (other) RGSHHHHHHGSGTATTINASSSAINTNTNAKYDVDVTPSVSAVAANTANNTPAIAGNLTGTISASYNGKTYTANLKADTENATITAAGSTTAVKPAELAAGVAYTVTVNDVSFNFGSENAGKTVTLG	binds	
SAN, crystallisation domain of SA-protein (amino acids 1-290), His-tagged (other, Construct from Smit et al. 2001; not shown: His-tag (detected with anti-his antibody)) ATTINASSSAINTNTNAKYDVDVTPSVSAVAANTANNTPAIAGNLTGTISASYNGKTYTANLKADTENATITAAGSTTAVKPAELAAGVAYTVTVNDVSFNFGSENAGKTVTLGSANSNVKFTGTNSDNQTETNVSTLKVKLDQNGVASLTNVSIANVYAINTTDNSNVNFYDVTSGATVTNGAVSVNADNQGQVNVANVVAAINSKYFAAQYADKKLNTRTANTEDAIKAALKDQKIDVNSVGYFKAPHTFTVNVKATSNTNGKSATLPVVVTVPNVAEPTVASVSKRI		binds
